± gives the uncertainty stated by the source.

To fix the notation:
B1: Far upstream element-binding protein 3, residues 75 to 150; numbered along this chain, Q96I24 (parent)
chain: RTVITEEFKVPDKMVGFIIGRGGEQISRIQAESGCKIQIASESSGIPERPCVLTGTPESIEQAKRLLGQIVDRCRN

Variants of B1 are the subject of this series. Description: abundance fitness (aPCA) (normalised: wild type 0, dead -1); higher = more abundant; growth selection in yeast, the domain comes from the species named. Particulars: Homo sapiens.
For RTVISEEFKVPDKMVGFIIGRGGEQISRIQAESGCKIQIASESSGIPERPCVLTGTPESIEQAKRLLGQIVDRCRN [T5S], the abundance fitness is -0.082 ± 0.039.
With RTVIREEFKVPDKMVGFIIGRGGEQISRIQAESGCKIQIASESSGIPERPCVLTGTPESIEQAKRLLGQIVDRCRN [T5R], the abundance fitness was -0.063 ± 0.031.
As for RTVIVEEFKVPDKMVGFIIGRGGEQISRIQAESGCKIQIASESSGIPERPCVLTGTPESIEQAKRLLGQIVDRCRN [T5V], the abundance fitness is -0.09 ± 0.032.
Turning to RTVITEEEKVPDKMVGFIIGRGGEQISRIQAESGCKIQIASESSGIPERPCVLTGTPESIEQAKRLLGQIVDRCRN [F8E], the abundance fitness was -0.351 ± 0.038.
For RTVITEEMKVPDKMVGFIIGRGGEQISRIQAESGCKIQIASESSGIPERPCVLTGTPESIEQAKRLLGQIVDRCRN [F8M], the abundance fitness is -0.083 ± 0.045.
As for RTVITEEHKVPDKMVGFIIGRGGEQISRIQAESGCKIQIASESSGIPERPCVLTGTPESIEQAKRLLGQIVDRCRN [F8H], the abundance fitness is -0.173 ± 0.071.
As to RTVITEEVKVPDKMVGFIIGRGGEQISRIQAESGCKIQIASESSGIPERPCVLTGTPESIEQAKRLLGQIVDRCRN [F8V], the abundance fitness was -0.064 ± 0.029.
For RTVITEEKKVPDKMVGFIIGRGGEQISRIQAESGCKIQIASESSGIPERPCVLTGTPESIEQAKRLLGQIVDRCRN [F8K] the value was -0.397 ± 0.053.
In the case of RTVITEEDKVPDKMVGFIIGRGGEQISRIQAESGCKIQIASESSGIPERPCVLTGTPESIEQAKRLLGQIVDRCRN [F8D], the abundance fitness was -0.208 ± 0.07.
Regarding RTVITEESKVPDKMVGFIIGRGGEQISRIQAESGCKIQIASESSGIPERPCVLTGTPESIEQAKRLLGQIVDRCRN [F8S], the abundance fitness was -0.18 ± 0.037.
As for RTVITEELKVPDKMVGFIIGRGGEQISRIQAESGCKIQIASESSGIPERPCVLTGTPESIEQAKRLLGQIVDRCRN [F8L], the abundance fitness was -0.097 ± 0.03.
Regarding RTVITEEPKVPDKMVGFIIGRGGEQISRIQAESGCKIQIASESSGIPERPCVLTGTPESIEQAKRLLGQIVDRCRN [F8P], the abundance fitness is -0.651 ± 0.051.
RTVITEENKVPDKMVGFIIGRGGEQISRIQAESGCKIQIASESSGIPERPCVLTGTPESIEQAKRLLGQIVDRCRN [F8N]: the abundance fitness is -0.353 ± 0.074.
With RTVITEEYKVPDKMVGFIIGRGGEQISRIQAESGCKIQIASESSGIPERPCVLTGTPESIEQAKRLLGQIVDRCRN [F8Y], the abundance fitness was -0.024 ± 0.076.
In the case of RTVITEERKVPDKMVGFIIGRGGEQISRIQAESGCKIQIASESSGIPERPCVLTGTPESIEQAKRLLGQIVDRCRN [F8R], the abundance fitness was -0.543 ± 0.029.
Take RTVITEETKVPDKMVGFIIGRGGEQISRIQAESGCKIQIASESSGIPERPCVLTGTPESIEQAKRLLGQIVDRCRN [F8T]: the abundance fitness is -0.042 ± 0.046.
For RTVITEECKVPDKMVGFIIGRGGEQISRIQAESGCKIQIASESSGIPERPCVLTGTPESIEQAKRLLGQIVDRCRN [F8C], the abundance fitness is -0.317 ± 0.041.
As to RTVITEEWKVPDKMVGFIIGRGGEQISRIQAESGCKIQIASESSGIPERPCVLTGTPESIEQAKRLLGQIVDRCRN [F8W], the abundance fitness was -0.027 ± 0.031.
As to RTVITEEQKVPDKMVGFIIGRGGEQISRIQAESGCKIQIASESSGIPERPCVLTGTPESIEQAKRLLGQIVDRCRN [F8Q], the abundance fitness was -0.34 ± 0.046.
As for RTVITERFKVPDKMVGFIIGRGGEQISRIQAESGCKIQIASESSGIPERPCVLTGTPESIEQAKRLLGQIVDRCRN [E7R], the abundance fitness is -0.057 ± 0.027.
In the case of RTVITEDFKVPDKMVGFIIGRGGEQISRIQAESGCKIQIASESSGIPERPCVLTGTPESIEQAKRLLGQIVDRCRN [E7D], the abundance fitness was -0.02 ± 0.047.
The value for RTVITEYFKVPDKMVGFIIGRGGEQISRIQAESGCKIQIASESSGIPERPCVLTGTPESIEQAKRLLGQIVDRCRN [E7Y] was -0.037 ± 0.055.
On to RTVITEGFKVPDKMVGFIIGRGGEQISRIQAESGCKIQIASESSGIPERPCVLTGTPESIEQAKRLLGQIVDRCRN [E7G], for which the abundance fitness is -0.083 ± 0.026.
Take RTVITEKFKVPDKMVGFIIGRGGEQISRIQAESGCKIQIASESSGIPERPCVLTGTPESIEQAKRLLGQIVDRCRN [E7K]: the abundance fitness was -0.01 ± 0.041.
For RTVITEPFKVPDKMVGFIIGRGGEQISRIQAESGCKIQIASESSGIPERPCVLTGTPESIEQAKRLLGQIVDRCRN [E7P] the value was -0.136 ± 0.043; for RTVITEIFKVPDKMVGFIIGRGGEQISRIQAESGCKIQIASESSGIPERPCVLTGTPESIEQAKRLLGQIVDRCRN [E7I], -0.048 ± 0.064.
Regarding RTVITECFKVPDKMVGFIIGRGGEQISRIQAESGCKIQIASESSGIPERPCVLTGTPESIEQAKRLLGQIVDRCRN [E7C], the abundance fitness is -0.135 ± 0.037.
Turning to RTVITETFKVPDKMVGFIIGRGGEQISRIQAESGCKIQIASESSGIPERPCVLTGTPESIEQAKRLLGQIVDRCRN [E7T], the abundance fitness was -0.002 ± 0.042.
Regarding RTVITEHFKVPDKMVGFIIGRGGEQISRIQAESGCKIQIASESSGIPERPCVLTGTPESIEQAKRLLGQIVDRCRN [E7H], the abundance fitness was -0.002 ± 0.05.
RTVITEAFKVPDKMVGFIIGRGGEQISRIQAESGCKIQIASESSGIPERPCVLTGTPESIEQAKRLLGQIVDRCRN [E7A]: the abundance fitness was -0.078 ± 0.031.
Take RTVITELFKVPDKMVGFIIGRGGEQISRIQAESGCKIQIASESSGIPERPCVLTGTPESIEQAKRLLGQIVDRCRN [E7L]: the abundance fitness is -0.048 ± 0.029.
In the case of RTVITEFFKVPDKMVGFIIGRGGEQISRIQAESGCKIQIASESSGIPERPCVLTGTPESIEQAKRLLGQIVDRCRN [E7F], the abundance fitness stood at 0.088 ± 0.05.
For RTVITEVFKVPDKMVGFIIGRGGEQISRIQAESGCKIQIASESSGIPERPCVLTGTPESIEQAKRLLGQIVDRCRN [E7V] the value was -0.036 ± 0.029; for RTVITEQFKVPDKMVGFIIGRGGEQISRIQAESGCKIQIASESSGIPERPCVLTGTPESIEQAKRLLGQIVDRCRN [E7Q], -0.072 ± 0.039; for RTVITEMFKVPDKMVGFIIGRGGEQISRIQAESGCKIQIASESSGIPERPCVLTGTPESIEQAKRLLGQIVDRCRN [E7M], -0.111 ± 0.04.
Turning to RTVITESFKVPDKMVGFIIGRGGEQISRIQAESGCKIQIASESSGIPERPCVLTGTPESIEQAKRLLGQIVDRCRN [E7S], the abundance fitness was -0.019 ± 0.032.

For the origin of these results see the Human Domainome abundance scans (Beltran et al. 2025).
